Measured values from the supplement of paper PMC10065799, “High-throughput profiling of sequence recognition by tyrosine kinases and SH2 domains using bacterial peptide display” (eLife, 2023).

Test system: c-Abl (mouse)
Assay: phosphorylation enrichment, bacterial display (enrichment ratio); higher = better substrate or ligand; peptides without Tyr show the background
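Further: 11-residue human phosphosite peptides and single-mutation variants displayed on the E. coli surface, counted by deep sequencing, each peptide's frequency after selection divided by its frequency in the unselected input library; frequency after pTyr selection over input frequency; kinase dosed for 20-30% of maximal phosphorylation in three min.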

First: ALMGLYHGQVL [HADHA_Y343]
Second: TVVVPYEPPEV [TP53_Y220_S215T]
The phosphorylation enrichment of the first is lower: 0.679 for the first, 0.89 for the second.

Compared with PATINYPFEKG [NDUFS8_Y84], GSRGKYFSGFR [ATM_Y332_S333F] is higher in phosphorylation enrichment: 0.491 for the first, 0.657 for the second.

Going from QLQTNYPSSDN [MAX_Y115] to GYDHSYYFIAT [ESD_Y262], the phosphorylation enrichment falls from 1.02 to 0.759.

Compared with IFGVSYGEFRF [CFTR_Y512_D513G_YF], RPYSPYIIRGM [LRP5_Y1531_R1529S] is lower in phosphorylation enrichment: 0.779 for the first, 0.681 for the second.

First: RHPLDYLRQYP [NARS2_Y138_E137D]
Second: ISPPVYLTNEW [NRK_Y885]
The phosphorylation enrichment of the first is lower: 0.627 for the first, 0.92 for the second.

First: SMGHRYIEVFR [HNRNPF_Y82_K87R]
Second: PPVVNYEEDAR [FER_Y402]
The phosphorylation enrichment of the first is lower: 0.514 for the first, 0.824 for the second.

Going from ALVFLSFCIIF [SIGLEC12_Y494_Y494S] to PEADKYHLTFA [FGG_Y300_R301H_YF], the phosphorylation enrichment rises from 0.974 to 2.22.

First: LQPNNCQFCGG [CSF1R_Y969_Y969C]
Second: VASSLYDIFAR [GLB1_Y294_L297F]
The phosphorylation enrichment of the first is lower: 1.07 for the first, 1.25 for the second.

First: YIRKDYEACKA [BBS4_Y48]
Second: IIRQLYLKWHP [SACS_Y4333_R4331Q]
The phosphorylation enrichment of the first is lower: 0.374 for the first, 0.608 for the second.

Compared with AVLSLYASGRN [ACTA1_Y145_T150N], GGFTRYCDGKK [PROS1_Y266_C265R_YF] is lower in phosphorylation enrichment: 0.737 for the first, 0.601 for the second.

Compared with LKMLVYMDMSK [LRRC7_Y234_L235M], PRIKTYMRPSP [TDP1_Y497_H493R] is lower in phosphorylation enrichment: 1.23 for the first, 0.425 for the second.

Going from DRPSEYAARQL [ANXA13_Y90] to ADEEFYEIIAA [FEStide_F_2014], the phosphorylation enrichment rises from 0.579 to 0.853.

Going from KFANSYRMEPL [TCTE3_Y87] to SYKNKYGMVAQ [APOB_Y276], the phosphorylation enrichment rises from 0.534 to 0.562.

Compared with SKKVRYVVSKA [BARD1_Y156], CGASGYSATST [CERT1_Y143_S138C] is higher in phosphorylation enrichment: 0.538 for the first, 0.746 for the second.

First: NGLVAYKDGKL [PMM2_Y76]
Second: EFKDAYTFAAD [BRDT_Y335_K336T_YF]
The phosphorylation enrichment of the first is lower: 0.427 for the first, 0.647 for the second.

Compared with ETLLFYGCRRS [POR_Y564_YF], NVQIVYKPVDL [MAPT_Y627_S622N] is lower in phosphorylation enrichment: 0.82 for the first, 0.723 for the second.

ALEHKYWALGQ [MAP1A_Y1555_Q1553H] gave a phosphorylation enrichment of 0.652.

Test system: c-Src
Assay: as above

Going from ALMGLYHGQVL [HADHA_Y343] to TVVVPYEPPEV [TP53_Y220_S215T], the phosphorylation enrichment falls from 1.28 to 0.537.

Compared with PATINYPFEKG [NDUFS8_Y84], GSRGKYFSGFR [ATM_Y332_S333F] is lower in phosphorylation enrichment: 0.674 for the first, 0.616 for the second.

Going from QLQTNYPSSDN [MAX_Y115] to GYDHSYYFIAT [ESD_Y262], the phosphorylation enrichment rises from 0.628 to 1.57.

First: IFGVSYGEFRF [CFTR_Y512_D513G_YF]
Second: RPYSPYIIRGM [LRP5_Y1531_R1529S]
The phosphorylation enrichment of the first is higher: 5.39 for the first, 1.07 for the second.

Going from RHPLDYLRQYP [NARS2_Y138_E137D] to ISPPVYLTNEW [NRK_Y885], the phosphorylation enrichment rises from 0.411 to 0.766.

Compared with SMGHRYIEVFR [HNRNPF_Y82_K87R], PPVVNYEEDAR [FER_Y402] is higher in phosphorylation enrichment: 0.367 for the first, 0.534 for the second.

First: ALVFLSFCIIF [SIGLEC12_Y494_Y494S]
Second: PEADKYHLTFA [FGG_Y300_R301H_YF]
The phosphorylation enrichment of the first is lower: 0.439 for the first, 1.03 for the second.

Compared with LQPNNCQFCGG [CSF1R_Y969_Y969C], VASSLYDIFAR [GLB1_Y294_L297F] is higher in phosphorylation enrichment: 0.647 for the first, 6.38 for the second.

First: YIRKDYEACKA [BBS4_Y48]
Second: IIRQLYLKWHP [SACS_Y4333_R4331Q]
The phosphorylation enrichment of the first is lower: 0.386 for the first, 0.509 for the second.

Compared with AVLSLYASGRN [ACTA1_Y145_T150N], GGFTRYCDGKK [PROS1_Y266_C265R_YF] is higher in phosphorylation enrichment: 0.419 for the first, 0.423 for the second.

Compared with LKMLVYMDMSK [LRRC7_Y234_L235M], PRIKTYMRPSP [TDP1_Y497_H493R] is lower in phosphorylation enrichment: 0.872 for the first, 0.474 for the second.

First: DRPSEYAARQL [ANXA13_Y90]
Second: ADEEFYEIIAA [FEStide_F_2014]
The phosphorylation enrichment of the first is lower: 0.389 for the first, 3.36 for the second.

Going from KFANSYRMEPL [TCTE3_Y87] to SYKNKYGMVAQ [APOB_Y276], the phosphorylation enrichment rises from 0.528 to 0.569.

First: SKKVRYVVSKA [BARD1_Y156]
Second: CGASGYSATST [CERT1_Y143_S138C]
The phosphorylation enrichment of the first is lower: 0.341 for the first, 0.489 for the second.

First: NGLVAYKDGKL [PMM2_Y76]
Second: EFKDAYTFAAD [BRDT_Y335_K336T_YF]
The phosphorylation enrichment of the first is lower: 0.423 for the first, 1.36 for the second.

Compared with ETLLFYGCRRS [POR_Y564_YF], NVQIVYKPVDL [MAPT_Y627_S622N] is lower in phosphorylation enrichment: 0.563 for the first, 0.415 for the second.

ALEHKYWALGQ [MAP1A_Y1555_Q1553H] was tested, and the phosphorylation enrichment was 1.39.

Target: FGFR3 (UniProt P22607)
Sequence (P22607 whole entry, looked up): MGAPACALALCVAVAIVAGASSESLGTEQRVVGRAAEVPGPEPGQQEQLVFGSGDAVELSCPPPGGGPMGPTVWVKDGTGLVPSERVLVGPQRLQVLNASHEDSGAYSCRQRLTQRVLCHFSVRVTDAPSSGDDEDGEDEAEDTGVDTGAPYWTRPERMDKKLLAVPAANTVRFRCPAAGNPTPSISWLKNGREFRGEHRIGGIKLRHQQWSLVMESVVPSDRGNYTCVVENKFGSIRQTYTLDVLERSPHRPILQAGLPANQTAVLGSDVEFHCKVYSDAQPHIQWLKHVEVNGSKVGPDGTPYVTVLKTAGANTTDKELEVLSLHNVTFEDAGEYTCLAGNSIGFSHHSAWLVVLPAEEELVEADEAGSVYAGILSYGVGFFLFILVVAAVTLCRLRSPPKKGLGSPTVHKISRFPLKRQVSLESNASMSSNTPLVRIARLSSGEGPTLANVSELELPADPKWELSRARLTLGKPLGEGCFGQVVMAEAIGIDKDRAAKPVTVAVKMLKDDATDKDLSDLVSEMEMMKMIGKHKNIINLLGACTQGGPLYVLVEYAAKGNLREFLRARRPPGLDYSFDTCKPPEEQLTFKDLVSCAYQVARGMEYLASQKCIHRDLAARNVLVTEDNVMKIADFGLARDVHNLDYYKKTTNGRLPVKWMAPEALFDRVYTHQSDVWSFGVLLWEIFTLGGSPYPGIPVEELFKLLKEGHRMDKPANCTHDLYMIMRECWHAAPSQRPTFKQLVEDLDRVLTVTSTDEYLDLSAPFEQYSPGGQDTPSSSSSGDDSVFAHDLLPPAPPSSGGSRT
Assay: as above

First: ALMGLYHGQVL [HADHA_Y343]
Second: TVVVPYEPPEV [TP53_Y220_S215T]
The phosphorylation enrichment of the first is higher: 0.641 for the first, 0.62 for the second.

First: PATINYPFEKG [NDUFS8_Y84]
Second: GSRGKYFSGFR [ATM_Y332_S333F]
The phosphorylation enrichment of the first is higher: 0.565 for the first, 0.412 for the second.

Going from QLQTNYPSSDN [MAX_Y115] to GYDHSYYFIAT [ESD_Y262], the phosphorylation enrichment rises from 0.725 to 9.89.

Compared with IFGVSYGEFRF [CFTR_Y512_D513G_YF], RPYSPYIIRGM [LRP5_Y1531_R1529S] is lower in phosphorylation enrichment: 0.646 for the first, 0.509 for the second.

Compared with RHPLDYLRQYP [NARS2_Y138_E137D], ISPPVYLTNEW [NRK_Y885] is higher in phosphorylation enrichment: 0.694 for the first, 0.718 for the second.

First: SMGHRYIEVFR [HNRNPF_Y82_K87R]
Second: PPVVNYEEDAR [FER_Y402]
The phosphorylation enrichment of the first is lower: 0.506 for the first, 0.968 for the second.

Compared with ALVFLSFCIIF [SIGLEC12_Y494_Y494S], PEADKYHLTFA [FGG_Y300_R301H_YF] is higher in phosphorylation enrichment: 0.603 for the first, 1.5 for the second.

Compared with LQPNNCQFCGG [CSF1R_Y969_Y969C], VASSLYDIFAR [GLB1_Y294_L297F] is lower in phosphorylation enrichment: 1.21 for the first, 0.714 for the second.

Compared with YIRKDYEACKA [BBS4_Y48], IIRQLYLKWHP [SACS_Y4333_R4331Q] is higher in phosphorylation enrichment: 0.38 for the first, 0.604 for the second.

Going from AVLSLYASGRN [ACTA1_Y145_T150N] to GGFTRYCDGKK [PROS1_Y266_C265R_YF], the phosphorylation enrichment falls from 0.581 to 0.449.

Compared with LKMLVYMDMSK [LRRC7_Y234_L235M], PRIKTYMRPSP [TDP1_Y497_H493R] is lower in phosphorylation enrichment: 0.984 for the first, 0.522 for the second.

Compared with DRPSEYAARQL [ANXA13_Y90], ADEEFYEIIAA [FEStide_F_2014] is higher in phosphorylation enrichment: 0.482 for the first, 1.4 for the second.

Going from KFANSYRMEPL [TCTE3_Y87] to SYKNKYGMVAQ [APOB_Y276], the phosphorylation enrichment falls from 0.491 to 0.385.

First: SKKVRYVVSKA [BARD1_Y156]
Second: CGASGYSATST [CERT1_Y143_S138C]
The phosphorylation enrichment of the first is lower: 0.402 for the first, 0.872 for the second.

First: NGLVAYKDGKL [PMM2_Y76]
Second: EFKDAYTFAAD [BRDT_Y335_K336T_YF]
The phosphorylation enrichment of the first is lower: 0.448 for the first, 0.606 for the second.

Compared with ETLLFYGCRRS [POR_Y564_YF], NVQIVYKPVDL [MAPT_Y627_S622N] is higher in phosphorylation enrichment: 0.445 for the first, 0.648 for the second.

ALEHKYWALGQ [MAP1A_Y1555_Q1553H] was tested, and the phosphorylation enrichment was 0.582.

Target: Fyn (UniProt P06241)
Sequence (P06241 whole entry, looked up): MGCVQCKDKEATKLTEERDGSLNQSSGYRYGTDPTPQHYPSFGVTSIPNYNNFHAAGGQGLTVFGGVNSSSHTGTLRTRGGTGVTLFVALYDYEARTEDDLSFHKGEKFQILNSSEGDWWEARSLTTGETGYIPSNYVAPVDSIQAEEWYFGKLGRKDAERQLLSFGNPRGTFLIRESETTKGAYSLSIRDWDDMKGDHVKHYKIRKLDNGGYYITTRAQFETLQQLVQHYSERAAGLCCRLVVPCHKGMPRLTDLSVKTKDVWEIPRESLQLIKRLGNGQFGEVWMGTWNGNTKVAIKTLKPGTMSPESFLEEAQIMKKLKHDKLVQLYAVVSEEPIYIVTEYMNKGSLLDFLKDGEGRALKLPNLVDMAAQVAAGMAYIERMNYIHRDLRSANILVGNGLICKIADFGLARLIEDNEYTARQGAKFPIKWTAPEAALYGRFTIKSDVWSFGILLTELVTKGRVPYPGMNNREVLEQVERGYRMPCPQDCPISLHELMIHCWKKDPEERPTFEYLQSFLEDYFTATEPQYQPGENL
Assay: as above

First: ALMGLYHGQVL [HADHA_Y343]
Second: TVVVPYEPPEV [TP53_Y220_S215T]
The phosphorylation enrichment of the first is higher: 0.728 for the first, 0.475 for the second.

Going from PATINYPFEKG [NDUFS8_Y84] to GSRGKYFSGFR [ATM_Y332_S333F], the phosphorylation enrichment falls from 1.04 to 0.386.

Going from QLQTNYPSSDN [MAX_Y115] to GYDHSYYFIAT [ESD_Y262], the phosphorylation enrichment rises from 0.476 to 1.41.

Compared with IFGVSYGEFRF [CFTR_Y512_D513G_YF], RPYSPYIIRGM [LRP5_Y1531_R1529S] is lower in phosphorylation enrichment: 5.32 for the first, 0.848 for the second.

Going from RHPLDYLRQYP [NARS2_Y138_E137D] to ISPPVYLTNEW [NRK_Y885], the phosphorylation enrichment rises from 0.547 to 0.825.

First: SMGHRYIEVFR [HNRNPF_Y82_K87R]
Second: PPVVNYEEDAR [FER_Y402]
The phosphorylation enrichment of the first is lower: 0.335 for the first, 0.896 for the second.

First: ALVFLSFCIIF [SIGLEC12_Y494_Y494S]
Second: PEADKYHLTFA [FGG_Y300_R301H_YF]
The phosphorylation enrichment of the first is lower: 0.496 for the first, 0.73 for the second.

First: LQPNNCQFCGG [CSF1R_Y969_Y969C]
Second: VASSLYDIFAR [GLB1_Y294_L297F]
The phosphorylation enrichment of the first is lower: 0.752 for the first, 6.66 for the second.

Compared with YIRKDYEACKA [BBS4_Y48], IIRQLYLKWHP [SACS_Y4333_R4331Q] is lower in phosphorylation enrichment: 0.445 for the first, 0.38 for the second.

First: AVLSLYASGRN [ACTA1_Y145_T150N]
Second: GGFTRYCDGKK [PROS1_Y266_C265R_YF]
The phosphorylation enrichment of the first is higher: 0.44 for the first, 0.368 for the second.

Compared with LKMLVYMDMSK [LRRC7_Y234_L235M], PRIKTYMRPSP [TDP1_Y497_H493R] is lower in phosphorylation enrichment: 0.807 for the first, 0.366 for the second.

Going from DRPSEYAARQL [ANXA13_Y90] to ADEEFYEIIAA [FEStide_F_2014], the phosphorylation enrichment rises from 0.453 to 2.42.

Going from KFANSYRMEPL [TCTE3_Y87] to SYKNKYGMVAQ [APOB_Y276], the phosphorylation enrichment falls from 0.47 to 0.367.

Going from SKKVRYVVSKA [BARD1_Y156] to CGASGYSATST [CERT1_Y143_S138C], the phosphorylation enrichment rises from 0.366 to 0.476.

Going from NGLVAYKDGKL [PMM2_Y76] to EFKDAYTFAAD [BRDT_Y335_K336T_YF], the phosphorylation enrichment rises from 0.305 to 0.63.

First: ETLLFYGCRRS [POR_Y564_YF]
Second: NVQIVYKPVDL [MAPT_Y627_S622N]
The phosphorylation enrichment of the first is higher: 0.43 for the first, 0.414 for the second.

ALEHKYWALGQ [MAP1A_Y1555_Q1553H] was tested, and the phosphorylation enrichment was 0.801.
